We go through one sequence from paper PMC12708450.

The term Kd denotes the constant that tells how readily two partners part at equilibrium.

This series addresses PD-L1 (recombinant human) (Homo sapiens) (UniProt Q9NZQ7). Put plainly: ELONA. The settings on record: 1:1 hyperbolic fit; internal C3 spacer (iSpC3) between DNA nt 63 and RNA nt 1 (strand position 64); nt 1-63 DNA, nt 64-82 RNA; strand 2 RNA; ELONA: PD-L1 coated in PBS at 4 C overnight; blocked with PBS, 0.1% Tween 20, 1% BSA; wash PBS, 1 mM MgCl2, 0.1% Tween 20, 0.1% BSA; oligo heated 95 C 10 min ….

Sequence of PD-L1 (recombinant human) (Homo sapiens) (Q9NZQ7 19-238): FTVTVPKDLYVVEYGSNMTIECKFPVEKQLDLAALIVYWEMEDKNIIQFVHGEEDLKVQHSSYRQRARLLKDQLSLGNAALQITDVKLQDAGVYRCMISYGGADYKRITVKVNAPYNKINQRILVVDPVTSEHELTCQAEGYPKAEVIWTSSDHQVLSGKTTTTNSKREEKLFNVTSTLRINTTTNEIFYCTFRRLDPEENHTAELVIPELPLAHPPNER

With “ACCGACCGTGCTGGACTCATCTCGCTTTTTTCACGGTCCACACTACTATGAGCGAGCCTGGCGGGAAUGACCUCUUUCACCA / UGGUGAAAGAGGUCAUUCC [PD-L1 aptamer-CD47 siRNA chimera]”, the dissociation constant (Kd) turned out to be 174 nM.
